Data as given in US9157067B2, “Pluripotent cells from mammalian late epiblast layer” (priority 2006, dated 2015).

Experiments:
rat epiblast layers = experiment: Derivation of EpiSC lines from rat epiblast layers; format: cell-based
Source text: The hypothesis that Activin and FGF signalling in pluripotency are conserved in mammalian development is supported by the ability of Activin/Nodal signalling to maintain long-term pluripotency of both human ESCs and mouse EpiSCs. As a further test of this hypothesis, we attempted to derive EpiSCs from rats, a species from which embryonic stem cell derivation has been problematic. Following the method we established in the mouse, epiblast layers were dissected from rat embryos at pre-gastrula stages (E 7.5-8.5) and grown on fibronectin-coated or FBS coated plates in CDM supplemented with Activin and FGF. […] Nevertheless, four EpiSC lines were derived out of 14 embryos of the Wistar strain and 1 EpiSC line was derived out of 20 embryos from the Sprague-Dawley strain using CDM supplemented with Activin alone.

Rat EpiSCs = experiment: Oct-4 immunostaining of rat EpiSCs grown in supplemented CDM; format: cell-based; details: after one week in CDM; 5B431542 10 uM; BMP4 10 ng/ml + 5B431542 10 uM; Activin 10 ng/ml + Noggin 100 ng/ml
Description: hESCs, mouse ESCs or EpiSCS were fixed for 20 minutes at 4° C. in 4% paraformaldehyde (PFA) and then washed three times in PBS. Cells were incubated for 20 minutes at room temperature in PBS containing 10% goat serum (Serotec) and subsequently incubated over night at 4° C. with primary antibody diluted in 1% goat serum in PBS as follows: SSEA-3 (1:100, Santa Cruz), SSAE-1 (1:25, gift from PW Andrews), Tra-1-60 (1:100, Santa CruZ), Oct-4 (1:100, SantaCruz), Sox2 (1:100, Abeam ab15830), Nanog (1:100, Abeam), Blirnpl (Abeam). Cells were then washed three times in PBS and incubated with fluorescein-Isothiocyanate-conjugated anti-mouse IgG or IgM (Sigma 1:200 in 1% goat serum in PBS) or rat IgM (Jackson laboratory 1:300 in goat serum in PBS) or rabbit IgG (Jackson laboratory 1:200 in donkey serum in PBS) for two hours at room temperature. Unbound secondary antibody was removed by 3 washes in PBS. Hoechst 33258 was added to the first wash (Sigma 1:10000).
Rat EpiSCs were grown in CDM supplemented in the presence of Activin (10 ng/ml), 5B431542 (10 uM), BMP4 10 ng/ml+5B431542 (10 uM) or Activin (10 ng/ml)+Noggin (IOOng/ml). After one week, the expression of the pluripotency marker Oct-4 was analysed using immunostaining. […] Similar results were obtained with mouse EpiSCs.

[1] = Rat Sprague-Dawley, 8.5 d.p.c, 37° C., fibro

B1: Activin: activin agonist growth factor, dimeric polypeptide stimulating the Activin/Nodal pathway (protein, UniProt P08476 311-426, looked up)
Inhibin beta A chain: GLECDGKVNICCKKQFFVSFKDIGWNDWIIAPSGYHANYCEGECPSHIAGTSGSSLSFHSTVINHYRMRGHSPFANLKSCCVPTKLRPMSMLYYDDGQNIIKKDIQNMIVEECGCS
Rat epiblast layers; [1]
  Lines derived: 1
  Rate %: 5%
Rat epiblast layers; Rat Water (Wistar), 8.5 d.p.c, 38° C., FCS
  Rate %: 35%

B2: FGF4: growth factor added to rat epiblast cultures (protein, UniProt P08620 31-206, looked up)
Fibroblast growth factor 4: APTAPNGTLEAELERRWESLVALSLARLPVAAQPKEAAVQSGAGDYLLGIKRLRRLYCNVGIGFHLQALPDGRIGGAHADTRDSLLELSPVERGVVSIFGVASRFFVAMSSKGKLYGSPFFTDECTFKEILLPNNYNAYESYKYPGMFIALSKNGKTKKGNRVSPTMKVTHFLPRL
Rat epiblast layers; addition to CDM supplemented with Activin
  differentiation of early epiblast cultures: induced differentiation

B3: Noggin: natural BMP inhibitor (protein, UniProt Q13253 28-232, looked up)
Noggin: QHYLHIRPAPSDNLPLVDLIEHPDPIFDPKEKDLNETLLRSLLGGHYDPGFMATSPPEDRPGGGGGAAGGAEDLAELDQLLRQRPSGAMPSEIKGLEFSEGLAQGKKQRLSKKLRRKLQMWLWSQTFCPVLYAWNDLGSRFWPRYVKVGSCFSKRSCSVPEGMVCKPSKSVHLTVLRWRCQRRGGQRCGWIPIQYPIISECKCSC
Rat EpiSCs
  expression of the pluripotency marker Oct-4: did not decrease expression of Oct-4
